Data reported in publication doi:10.1101/2024.01.30.575082 (bioRxiv, 2024).

Molecular target: the molecule itself
Experiment: crystal structure

B1: Shethna Protein II (FeSII) from Azotobacter vinelandii (natural protein, UniProt Q44501 1-122, looked up)
chain: MATIYFSSPLMPHNKKVQAVAGKRSTLLGVAQENGVKIPFECQDGNCGSCLVKITHLDGERIKGMLLTDKERNVLKSVGKLPKSEEERAAVRDLPPTYRLACQTIVTDEDLLVEFTGEPGGA
  binding result: binds
